The values below come from US11160869B2 (priority 2019, dated 2021).

In the assay the test system is IL-1Ra. Put plainly: Single oral capsule dose in NHP: plasma IL-1Ra. It is filed as in vivo, Macaca fascicularis. On the procedure:
The purpose of the IL-1Ra assay was to measure endogenous IL-1Ra in NHP plasma. The antibody pair in this sandwich immunoassay reacted with both human and NHP IL-1Ra. Samples were quantitated using an 8-point standard curve prepared from a human IL-1Ra calibrator (ranging from 5.5-4021 pg/mL, plus 0 pg/mL). Biotinylated anti-NHP IL-1Ra capture antibody was added to a MSD Small Spot Streptavidin plate and incubated for an hour at RT with shaking. Controls that represent low ([…]), mid ([…]) and high concentrations (3245 pg/mL) were prepared in pooled plasma, Standards (Calibrator 9 Blend) were prepared in Diluent 43 (MSD Cat No R50AG), and samples diluted 10 fold in Diluent 43. Standards, controls and diluted samples were added to the assay plate, and the plate incubated for 2 hours at room temperature with shaking. The plate was washed 3 times with PBST, and 1× SULFO TAG anti-IL-1Ra Antibody added to the plate. The plate was incubated for 1 hour at room temperature with shaking. Following a wash step, 2×MSD Read buffer was added to the wells of the plate, and the plate read using the MSD Sector Imager 600 plate reader. The lower limit of detection of each analyte is defined as 2.5 standard deviation above background.
IL-10 delivery construct dosing at multiple fixed doses in non-naïve adult male Macaca fascicularis was conducted by Valley Biosystems (West Sacramento, Calif.). […] Dosing groups are described in TABLE 45.

B1: IL-10 delivery construct: recombinant homodimeric fusion protein: N-terminal methionine, cholix386 domain, polyGlySer spacer, recombinant human IL-10 (protein)
chain: MVEEALNIFDECRSPCSLTPEPGKPIQSKLSIPSDVVLDEGVLYYSMTINDEQNDIKDEDKGESIITIGEFATVRATRHYVNQDAPFGVIHLDITTENGTKTYSYNRKEGEFAINWLVPIGEDSPASIKISVDELDQQRNIIEVPKLYSIDLDNQTLEQWKTQGNVSFSVTRPEHNIAISWPSVSYKAAQKEGSRHKRWAHWHTGLALCWLVPMDAIYNYITQQNCTLGDNWFGGSYETVAGTPKVITVKQGIEQKPVEQRIHFSKGNAMSALAAHRVCGVPLETLARSRKPRDLTDDLSCAYQAQNIVSLFVATRILFSHLDSVFTLNLDEQEPEVAERLSDLRRINENNPGMVTQVLTVARQIYNDYVTHHPGLTPEQTSAGAQAGGGGSGGGGSGGGGSPGQGTQSENSCTHFPGNLPNMLRDLRDAFSRVKTFFQMKDQLDNLLLKESLLEDFKGYLGCQALSEMIQFYLEEVMPQAENQDPDIKAHVNSLGENLKTLRLRLRRCHRFLPCENKSKAVEQVKNAFNKLQEKGIYKAMSEFDIFINYIEAYMTMKIRN
modifications: homodimer
Consider B1, for which, for the setting “82 mg, oral”, the “plasma IL-1Ra Cmax” value was 26,367 pg/mL and the “time of plasma IL-1Ra Cmax” value is given as 3 hours post-dose. Further, the “time by which plasma IL-1Ra returned to baseline” value (all dose groups) is not above 24 h. Under “compared with intravenous administration”, the “plasma IL-1Ra and IFN-γ after oral enteric-coated capsules” value is recorded as “increased IL-1Ra without significant induction of IFN-γ”.
